Test results: US20210047431A1 (DIACCURATE, published 2021)

Assays:
[1] = molecular target: T1, recombinant human sPLA2-GIB (mature secreted form of group IB pancreatic phospholipase A2) (human, UniProt P04054 23-148); assay: SPR (BIAcore 2000), mAb captured on anti-mouse IgG, antigen in solution
T1 construct: Genbank NP_000919 printed for human PLA2-GIB; also called sPLA2-IB; mature sPLA2-GIB
Procedure: (§1) The affinity constant (KD) of the pro-sPLA2-GIB and sPLA2-GIB binding to the selected antibodies described above were determined by surface kinetics on a real-time biosensor surface plasmon resonance assay (BIAcore™). More specifically, the affinity of the antibodies for human pro-sPLA2-GIB and sPLA2-GIB was measured using a BIAcore® 2000. The antibody was captured on an anti-mouse IgG surface and exposed to various concentrations of recombinant pro-sPLA2-GIB and sPLA2-GIB protein. Kinetic analysis using BlAevaluation™ software was performed to obtain the association and dissociation rate constants.
as §1, with “constants (Table 3).” for “constants.”

[2] = molecular target: T2, recombinant human pro-sPLA2-GIB (pro form of group IB pancreatic phospholipase A2) (human, UniProt P04054 16-148); assay: as above
T2 construct: also called pro-sPLA2-IB; proPLA2-GIB
Procedure: as §1
as §1, with “constants (Table 3).” for “constants.”

[3] = molecular target: T1, recombinant human sPLA2-GIB (mature …); assay: competition ELISA on coated sPLA2-IB; competitor biotinylated 7A10
Procedure: (§2) Epitope mapping of the #14G9, #1C11, #8G11 and #7A10 mAbs was evaluated by competition ELISA. Biotinylated mAbs #14G9, #1C11, #8G11 or #7A10 were added to sPLA2-GIB or pro-sPLA2-GIB coated plates in the presence of an excess of un-biotinylated mAb. Bound mAbs were then detected with Streptavidin-HRP conjugate. Results were expressed as percentage of signal, after subtraction of the autologous competition, with 0% representing maximum competition and 100% no competition (Table 4).

[4] = molecular target: T2, recombinant human pro-sPLA2-GIB (pro …); assay: competition ELISA on coated pro-sPLA2-IB; competitor biotinylated 7A10
Procedure: as §2

[5] = molecular target: T2, recombinant human pro-sPLA2-GIB (pro …); assay: competition ELISA on coated pro-sPLA2-IB; competitor biotinylated 8G11
Procedure: as §2

[6] = molecular target: T1, recombinant human sPLA2-GIB (mature …); assay: cell-based or functional assay
[7] = molecular target: T1, recombinant human sPLA2-GIB (mature …); assay: indirect ELISA, coated antigen
Procedure: (§3) Microplate wells were typically coated with 100 ng of recombinant human sPLA2-GIB or pro-sPLA2-GIB in PBS pH 7.5, overnight at 4° C. Sample wells were washed three times with PBS containing 0.05% Tween 20. After final washing, sample wells were treated with blocking solution containing 1% bovine serum albumin (BSA) in PBS buffer for 60 min at room temperature. Following washing with PBS containing 0.05% Tween 20, increasing amounts (10 ng/mL up to 3 μg/mL) of mAb directed against human pro-sPLA2-GIB or sPLA2-GIB were added to antigen-coated wells. and incubated for 120 min at room temperature. Following washing with PBS containing 0.05% Tween 20, the binding of mAb was detected with an HRP-conjugated goat anti-mouse IgG or IgA polyclonal antibody reagent and developed using colorimetric substrate. The dependency of the signals on the […] was analyzed with a 4-parameter fit analysis using Prism™ software (Graph Pad) and reported as EC50.

[8] = molecular target: T2, recombinant human pro-sPLA2-GIB (pro …); assay: indirect ELISA, coated antigen
Procedure: as §3

[9] = molecular target: T1, recombinant human sPLA2-GIB (mature …); assay: competition ELISA on coated sPLA2-IB; competitor biotinylated 14G9
Procedure: as §2

[10] = molecular target: T1, recombinant human sPLA2-GIB (mature …); assay: competitive ELISA: mAb premixed with serial dilutions of soluble antigen, free mAb read on antigen-coated plate
Procedure: (§4) Binding affinities of the antibodies to pro-sPLA2-GIB and sPLA2-GIB were measured by plate-based competition immunoassay. For the competition ELISA, briefly, constant amounts of antibody at different levels were premixed with serial dilutions of antigen protein, human sPLA2-GIB or pro-sPLA2-GIB, ranging from 0 to 10 μg/ml, and incubated for two hours at room temperature to reach pseudo-binding equilibrium between the antibody and antigen. These solutions were then transferred to 96-well sPLA2-GIB or pro-sPLA2-GIB pre-coated plates to allow the free-antibody in the mixtures to bind to plate-coated sPLA2-GIB or pro-sPLA2-GIB. The plates were typically coated with 30 to 100 ng of human sPLA2-GIB or pro-sPLA2-GIB protein in PBS solution overnight at 4° C. followed by BSA nonspecific blocking. After washing off excess antibody in solution, plate-bound antibodies were detected with an HRP-conjugated goat anti-mouse IgG or IgA polyclonal antibody reagent and developed using colorimetric substrate. The dependency of the signals on the concentrations of antigen in solution was analyzed with a 4-parameter fit analysis using Prism™ software (Graph Pad) and reported as IC50.
(§5) The respective binding affinities of the antibodies to human pro-sPLA2-GIB and human sPLA2-GIB were measured by plate-based competition immunoassay. Briefly, constant amounts of antibody at different levels were premixed with serial dilutions of antigen proteins to reach pseudo-binding equilibrium between the antibody and antigen. These solutions were then transferred to antigen pre-coated plates to allow the free-antibody in the mixtures to bind to plate-coated sPLA2-GIB or pro-sPLA2-GIB. Plate-bound antibodies were detected with an HRP-conjugated polyclonal antibody. Data were fitted with a 4PL logistic non-linear regression model and the relative IC50 values were estimated from the model (Table 2).

[11] = molecular target: T2, recombinant human pro-sPLA2-GIB (pro …); assay: as above
Procedure: as §4, §5

[12] = molecular target: T1, recombinant human sPLA2-GIB (mature …); assay: competition ELISA on coated sPLA2-IB; competitor biotinylated 1C11
Procedure: as §2

[13] = molecular target: T2, recombinant human pro-sPLA2-GIB (pro …); assay: competition ELISA on coated pro-sPLA2-IB; competitor biotinylated 1C11
Procedure: as §2

[14] = molecular target: T2, recombinant human pro-sPLA2-GIB (pro …); assay: indirect ELISA, coated antigen; indirect ELISA, pro-sPLA2-IB coated on the plate
Procedure: as §3

[15] = molecular target: T2, recombinant human pro-sPLA2-GIB (pro …); assay: SPR (BIAcore 2000), mAb captured on anti-mouse IgG, antigen in solution; SPR, mAb captured, pro-sPLA2-GIB in solution
Procedure: as §1
as §1, with “constants (Table 3).” for “constants.”

[16] = molecular target: T1, recombinant human sPLA2-GIB (mature …); assay: cell-based or functional assay; remark: listed apart in the source
[17] = molecular target: T2, recombinant human pro-sPLA2-GIB (pro …); assay: competitive ELISA: mAb premixed with serial dilutions of soluble antigen, free mAb read on antigen-coated plate; competitive ELISA, soluble pro-sPLA2-IB
Procedure: as §4, with “The plates were typically coated with 30 to 100 ng of human sPLA2-GIB or pro-sPLA2-GIB protein in PBS solution overnight at 4° C. followed by BSA nonspecific blocking.” left out
The respective binding affinities of the antibodies to human pro-sPLA2-GIB and human sPLA2-GIB were measured by plate-based competition immunoassay. […] Plate-bound antibodies were detected with an HRP-conjugated polyclonal antibody. […]

T1 sequence (P04054 23-148): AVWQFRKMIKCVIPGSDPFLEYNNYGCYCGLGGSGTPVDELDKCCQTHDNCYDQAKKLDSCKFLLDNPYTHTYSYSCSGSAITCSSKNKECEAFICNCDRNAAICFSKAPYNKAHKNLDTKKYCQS
T2 sequence (P04054 16-148): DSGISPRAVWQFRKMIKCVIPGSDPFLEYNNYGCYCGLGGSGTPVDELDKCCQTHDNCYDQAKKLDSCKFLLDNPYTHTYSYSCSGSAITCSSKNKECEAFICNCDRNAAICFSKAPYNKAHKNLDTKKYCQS

Binder	Kd [1]	koff [1]	kon [1]	t1/2 [1]	Kd [2]	koff [2]	kon [2]	t1/2 [2]	percentage of signal [3]	percentage of signal [4]	percentage of signal [5]	Enzymatic Activity Inhibition (% of Control) [6]	EC50 [7]	EC50 [8]	percentage of signal [9]	IC50 [10]	IC50 [11]	percentage of signal [12]	percentage of signal [13]	further results
#1C11 (antibody, IgG1, V domains shown, also called monoclonal antibody 1C11; #1C11 mAb) VH: EVKLQESGPELVKPGASVKISCKVSGYAFSSFWMNWVKQRPGKGLEWIGRIYPGDGDINYNGKFKGKATLTADKSSSTAYMQLSSLTSEDSAVYFCVRGWAWFPYWGQGTLVTVSA VL: EIVLTQSPAITSASLGQRVTISCSATSSVSYVHWYQQKSGTSPKPWIYEISRLASGVPARFSGSGSGTSYSLTISTMEAEDAAIYYCQSWNFPLLSFGAGTKLELKR	0.0644 nM	0.000309 s⁻¹	4.79e+06 M⁻¹ s⁻¹	53.9 min	0.151 nM	0.000405 s⁻¹	2.7e+06 M⁻¹ s⁻¹	41.2 min	1150%	314%	496%	110%	3 nM	4 nM	1440%	3.8 nM	2.4 nM			
#7A10 (antibody, IgG1, V domains shown, also called monoclonal antibody 7A10; #7A10 mAb) VH: QVQLKESGPGLVAPSQSLSITCTVSGFSLTSYGVSWVRQPPGKGLEWLGVIWGDGSTNYHSALISRLSISKDNSKSQVFLKLNSLQTDDTATYYCAKEGGLRRGVYFDYWGQGTTLTVSS VL: DIQMNQSPSSLSASLGDTITITCRASQGISIWLDWYQQKPGNIPKLLIYKASNLHTGVPPRFSGSGSGTDFTLTISSLQPEDIATYYCLQSQSYPLTFGAGTKLELKR	3.83 nM	0.000444 s⁻¹	118000 M⁻¹ s⁻¹	37.5 min	3.79 nM	0.000407 s⁻¹	110000 M⁻¹ s⁻¹	41 min			93%	51%	77 nM	13 nM	58%	5.3 nM	4.3 nM	19%	18%	
#22C6 (antibody, IgG2a, V domains shown) VH: EVQLQESGPGLVKPSQTVSLNCTVTGHSITDDNYYWSWIRLVSGSKLEWIGYITSAGNTDNNPSLKSRISITRDISKNQFFLHLSSVTAEDTATYYCARDSTDGDFYFEKWGQGTTLTVSS VL: EIVLTQSPTTMAASPGEKITITCSVSSSISPNFLHWYQQKPGFSPKLLIFRTSNLASGVPTRFSGSGSGTSYSLTIGTMEAEDVATYYCHQGNSLPLTFGAGTKLELKR									53%	141%	39%	3%	22 nM	117 nM	2%			56%	18%	
#24B2 (antibody, IgG2a, V domains shown) VH: DVQVQESGPGLVKPSQTVSLNCTVTGHSITDDNYYWSWIRLVSGSKLEWIGYITSSGSTDINPSLKSRISITRDISKNQFFLHLNSVTAEDTATYYCARDSTDGDFYFEKWGQGTTLTVSS VL: DIVLTQSPASLAVSLGQRATISCRASESVDNYGISFMHWYQQKPGQPPKLLIYRASNLESGIPARFSGSGSRTDFTLTINPVETDDVATYYCQQSSRDLFTFGGGTKLEIKR									65%	135%	64%	5%	15 nM	81 nM	17%			61%	23%	
#14G9 (antibody, IgG1, V domains shown, also called monoclonal antibody 14G9; #14G9 mAb) VH: QVQLQQPGAELVKPGASVKLSCKASGYTFTNYWIHWVKRRPGQGLEWIGNIDPSDTRTHYNQKFKDKATLAVDKSSSTAYMQLSSLTSEDSAVFYCARQTLYYEALDYWGQGTTLTVSS VL: DIVMTQSHKLMSTSVGDRVSITCKASQDVSTAVAWYQEKPGQSPKLLIYWASTRHTGVPNRFTGSRSGTDYTLTISSVQAEDLALYYCQQDYSTPPTFGAGTKLELKR	0.338 nM	0.000549 s⁻¹	1.63e+06 M⁻¹ s⁻¹	30.4 min					12%	141%	73%	5%	6 nM			1 nM		64%	69%	EC50 [14]: 158 nM; Kd [15]: 174 nM; koff [15]: 0.0506 s⁻¹; kon [15]: 301000 M⁻¹ s⁻¹; t1/2 [15]: 0.3 min; IC50 of inhibition of sPLA2-GIB enzymatic activity (sPLA2 Activity in U/mL against #14G9 mAb in Log M, 4PL fit) [16]: 2.3 nM; IC50 [17]: 109 nM
